Sequences and labels used below:
B1: ADI-41288 (antibody, V domains shown)
VH: EVQLVESGGGLVQPGGSLRLSCAASGFTFSSYAMSWVRQAAGKGLEWVSAISGSGDDTFYADSVKDRFIISRDSSKRKVYLQMNSLRVEDTAVYYCAKTDIMVTFGGVVVDAYYFDHWGQGTLVTVSS
VL: ETTLTQSPGTLSLSPGERATLSCRASQFVFRSYLAWYQQRPGQPPRLLIYGASSRATGIPDRFSGRGSGTEFTLTISRLEPEDFAMYYCQHYDSSPPGTFGGGTKVEIK
B2: ADI-41313 (antibody, V domains shown)
VH: EVQLVESGAEVKKPGASVKVSCKASGYTFNNYDISWVRQAPGQGLEWMGWISTYNGNTNYAQKFQGRATMTTDTSTTTAYMELRSLRSDDSAIYYCARVYCGGDCHNPFFLYFDLWGRGTLVTVSS
VL: SYVLTQPLSVSVALGQTARITCGGNNIGSKSVHWYQQKPGQAPLLVIYRDNNRPSGIPERFSGSTSGNTATLTISRAQAGDEADYSCQVWDNSDWVFGGGTKLTVL
B3: ADI-41308 (antibody, V domains shown)
VH: EVQLVESGPGLVKPSQTLSLTCAISGDSVSSNSAAWNWIRQSPSRGLERMGRTYYRSKWYDDYAVSVKSRIIINPDTSKNQFSLQLNSVTPEDTAVYYCARGISTFGGVIYALEIWGQGTMVTVSS
VL: SYVLTQPASVSGSPGQSITISCTGLTSDVGGYNFVSWYQQHPGKAPKLIIYDVSHRPSGVSNRFSGSESGNTASLTISGLQAEDEAHYYCSSYTRTSIVVFGGGTKLTVL
B4: ADI-41306 (antibody, V domains shown)
VH: QVQLVESGPRLVKPSQTLSLTCTVSGGSIYRGDYDWNWIRQPPGKGLEWIGYISYTGNTHYNSSLKSRLSISADTSGTHFSLKLSSVTAADTAIYYCARDVGYGGNAAHYYYYAMDVWGQGTTVTVSS
VL: ETTLTQSPATLSLSPGERATLSCRASQSVGSSLAWYQQKVGQAPRLLIYDASSRVTGIPARFSGSGSGTDFTLTISSLEPGDFAVYYCQQRSNSLTFGGGTKVEIK
B5: ADI-41292 (antibody, V domains shown)
VH: EVQLLESGGGVVQPGRSLRLSCAASGFSFSSYGIHWVRQAPGKGLECVALMSYDGSEKYYADSVKGRFTISRDNSKNTLYLHMNSLRREDTAVYYCAKGSHLRWSHLDYYFHLWGRGTLVTVSS
VL: DIVMTQSPSTLSASVGDRVTITCRASQSLSTWLAWYQQKPGKAPKLLISDASNLESGVPSRFSGRGSGTEFTLTISGLQPDDFATYYCQQERTFGQGTKVDIK
B6: ADI-41299 (antibody, V domains shown)
VH: EVQLVESGGGLVHPGRSLRLSCGASGFTFRSFAMHWVRQAPGKGLEWVAVISYDGSDEYYADSVKGRFTISRDNSRNTLFLQMNRLRPEDTAIYYCARAYCSTSNCPVLDYWGQGTLVTVSS
VL: QSVLIQPASVSGSPGQSITISCTGTSSDVGGYSLVSWYQQHPGKAPKLIIFEGNKRPAGVSDRFSGSKYGDTASLTISGLQAEDEADYYCCSYAGGHSVFGGGTKVTVL
B7: ADI-41293 (antibody, V domains shown)
VH: QVQLQQSGPGLAKPSQTLSLTCTVSGGPISGVDYYWSWIRQPPGKGLEWIGYIYYSGSTYYNPSLKSRVTISVDTSKKQFSLKMSSVTAADTAVYYCARDVGATPYYYYGMDVWGQGTTVTVSS
VL: DIVLTQSPDTLSLSPGERATLSCRASQSVRSNYLAWYQHKPGQAPRLLIYGASSRVAGIPDRFSGSGSGTDFTLTISRLEPEDFAVYYCQQYGSSPPSVTFGGGTKVEIK
B8: ADI-41291 (antibody, V domains shown)
VH: QVQLQQWGAGLLKPSETLSLTCVVYGESFSDSGYYWTWIRQPPEKGLEWIGEINHGGSTSYNPSLKSRVTISVDTSENQFSLKVTSVTGADTAVYYCARLRLGCSGGSCYSRFDYWGQGTLVTVSS
VL: DIQLTQSPSSLSASVGDRVTITCRASQSINSYLNWYQQKPGKAPVLLIHAASSLQGGVPSRFSGSGSGTDFTLTISSLQPEDFATYYCQQSYNTRWTFGHGTKVDIK
B9: ADI-41312 (antibody, V domains shown)
VH: QVQLQESGPGLVKPSGTLSLTCAVSGGSISSSNWWNWVRQPPGKGLEWIGEIYHSGRTNYNPSLKSRVSISIDKFKSQFSLNLNSVTAADTAVYYCARDLPGTPYDIVPGYYPGLRRHDAFDIWGQGTMVTVSS
VL: not shown
B10: ADI-41305 (antibody, V domains shown)
VH: QVTLKESGPGLVKPSQTLSLTCTVSGGSISGGGYYWSWIRQLPGKGLQWIGCIYDSGTTYYNPSLKSLVTISIDTSKNQFSLKLSSVTAADTAVYYCARGGSLDDFWSATWYFALWGRGTLVTVSS
VL: EIVLTQSPGTLSLSPGERATLSCRASQSVSSNYLAWYQQKPGQAPRLLIYGASSRATGIPDRFSGSGSGTDFTLTISRLEPEDFAFYYCQQYGRSPYTFGPGTKLEIK
B11: ADI-41309 (antibody, V domains shown)
VH: EVQLLESGPGLVKPSQTLSLTCTVSGGSISSGDYYWSWVRQPPGKGLEWIGNIYHSGSTYYKPSLKSRVSISLDTSKNQFSLKLSSVTAADTAIYYCARDGGENYVWGTFRFLDVWGQGTTVTVSS
VL: DIRLTQSPGTLSLSPGERATLSCRASQSVSSSYLAWYQQKPGQAPRLLIYGVSSRATGIPDRFSGSGSGTDFTLTINRLEPEDFALYHCQQYGSSPHTFGQGTKVEIK
B12: ADI-41304 (antibody, V domains shown)
VH: EVQLVESGPGLVKPSQTLSLTCTVSGGSIRSHDYYWSWIRQPPGKGLEWIGYSYYSGSTYYNPSLKSRVIISLDTSKNQFSLNLTSVTAADTAMYYCARDRPHTSSWIPGWFDPWGQGTLVTVSS
VL: SYELTQPPSASGTPGQRVTISCSGSSSNIGSNTVSWYQQFPGKAPKLLIYSNNERPSGGPDRFSGSKSGTSASLAIGGLQSEDEANYYCAAWDDSLYAVVFGGGTKLTVL
B13: ADI-41303 (antibody, V domains shown)
VH: QVQLVQSGGGLVRPGGSLRVSCAASGFIFNNYALTWVRQAPGKGLEWVSAISGSGSSTYYADSVKGRFTISRENSNNRLYLQLSGLRAEDTAVYFCARVRGLVWFEGRIDPYPNVFDYWGQGTLVTVSS
VL: DIVLTQSPGTLSLSPGERATLSCRASQSVSNDYLAWYQQKPGQAPRLLIYDASSRAIGIPDRFSGSGSGTDFTLIISRLEPEDFAVYYCHHPGKFGQGTKVEIK
B14: ADI-41307 (antibody, V domains shown)
VH: QVQLVESGGGLVKPGGSLRLSCAASGFPLSPYALNWVRQAPGKGLEWVSSITSSSAYIYYADSVKGRFTVSRDNPTNSLYLQMNSLRAEDTAVYYCARTIPQHYYDNNGDYYNYGMDVWGQGTTVTVSS
VL: DIVLTQSPATLSVSPGQRITLSCRASQTVRSNLAWYQQKPGQPPRLLIYGASTRATGVPARFTGSGSGTEFTLTITSLQSDDFAVYYCHQYNDRPLTFGPGTKVEIK
B15: ADI-41294 (antibody, V domains shown)
VH: EVQLLESGGGLVQPGGSLRLSCAASGFTFSAYEMNWVRQAPGKGLEWVSYISSSGSNKHYADSVKGRFTISRDNAKNSLHLHMNSLRAEDTALYYCTRPHQEEWELLPNDAFDLWGQGTMVTVSS
VL: QSALTQPPSASGSPGQSVTISCTGTSTDVGAYTYVSWYQQHPGKAPKLIIYEVYKRPSGVPNRFFGSKSGNTASLTVSGLQAEDEADYYCSSYGGSNNFGLFGGGTKLIVL
B16: ADI-41302 (antibody, V domains shown)
VH: QVQLVESGGGVVQPGRSLRLSCAASGFTFSSYAMQWVRQAPGKGLEWVAVMTNDGDDKYYADSVRGRFTISRDNSKNTLYLQMNNLRPEDTAVYYCARDLFEWWELLGYCYAMDVWGQGTTVTVSS
VL: QSVLTQPPSASGSPGQSVTISCTGTSSDVGAYNYVSWYQQHPGKAPKLIIYEVYKRPSGVPDRFFGSKSGNTASLTVSGLQAEDEADYYCSSYAGSNTLGVFGGGTKVTVL
B17: ADI-41296 (antibody, V domains shown)
VH: EVQLVESGVEVKKPGESLKISCRGSGYTFYNYWIAWVRQKPGKGLEYMGTIYLDDSETIYSPSFQGEVTISADKSINTAYLQWNSLKASDTANYYCARQMDFYFDVWGRGTLVTVSS
VL: SYELMQPPSVSVSPGQTARITCSGDPLPRESAYWYQQKPGQAPVVIIFNDIERPLGIPERFSGSRSGTTVTLTISGAQAEDEADYYCQSADSRKTFVFGTGTKLTVL
B18: ADI-41310 (antibody, V domains shown)
VH: QVQLVQSGVEVKKPGESLKISCRGSGYSFYNYWIAWVRQKPGKGLEYMGTIYLDDSDTIYSPSFQGEVTISADKSINTAYLQWNSLKASDTANYYCARQMDFYFDVWGRGTLVTVSS
VL: SYELTQPPSVSVSPGQTARITCSGDPLPRESAYWYQQKPGQAPVVVIFNDIERPLGIPGRFSGSRSGATATLTINGAQAEDEADYYCQSADSRKTFVFGAGTKLTVL
B19: ADI-41311 (antibody, V domains shown)
VH: QVTLKQSGPALVKPTQTLTLTCTFSGFSLSTKRMGVSWIRQPPGKALEWLARIDWDDDKYYSTSLRTRLTISKDTSKNQVVLTMTDMDPVDTATYYCARIQPYTSGGYYSYYFDYWGQGTLVTVSS
VL: DIQVTQSPSSLSASIGDRVTITCRASQTIASYLNWYQQKPGKAPKLLIYIASSLQSGVPSRFSGSGSGTDFTLTISTLQPEDFATYYCQQSYGTPWTFGQGTKVEIK
B20: ADI-41289 (antibody, V domains shown)
VH: EVQLVQSGAEVKKPGESLKISCKGSGYSFSSFWIGWVRQMPGKGLEWMGIIYPGDSDTRYSPSFQGQVTISADQSIRTAYLQWNSLKASDTGLYYCAKGGLGDVEMATIAVWGQGTLVTVSS
VL: QSVLIQPASVSGSPGQSITIPCTGTSSDVGSYNLVSWYQHHPGKAPKLIISEGSKRPLGVSNRFSGSKSGNTASLTISGLQAEDEADYYCSSYVRSRTFNYVFGTGTKLTVL
B21: ADI-41297 (antibody, V domains shown)
VH: QVQLVQSGAEVKKPGSSVKVSCKASGGTFSTDAISWVRQAPGQGLEWMGGIIPLFGTANYAQKFQGRVTITADESTSTAYMELNSLRSVDTAVYYCGRTGAFDGEVVVRPHLDLWGQGTLVTVSS
VL: QPVLTQPASVSGSPGQSITISCTGTSSDVGGYDYVSWYQHHPGKAPKLMIYEVSNRPSGVSNRFSGSKSGNTASLTISGLQADDEAAYYCSSYTRSNTLLFGGGTKLTVL

Where only a bound is given, the exact number is not on record here.

This assay addresses RSV F on RSV-A2 virus (Respiratory syncytial virus (RSV-A2)). In words: cell-based or functional assay.
Take B1: the “Neutralization IC50 (RSV subtype A)” value is > 25 µg/mL. The value for B2 was > 25 µg/mL; that for B3 was > 25 µg/mL.

In the case of B4, the “Neutralization IC50 (RSV subtype A)” value is 0.173 µg/mL. The value for B5 was > 25 µg/mL. For B6, the “Neutralization IC50 (RSV subtype A)” value is > 25 µg/mL. Under B7 stands 0.159 µg/mL; under B8, > 25 µg/mL. Under B9 stands > 25 µg/mL. Under B10 stands > 25 µg/mL. As for B11, the “Neutralization IC50 (RSV subtype A)” value is > 25 µg/mL. Under B12 stands > 25 µg/mL. Under B13 stands > 25 µg/mL; under B14, > 25 µg/mL. The value for B15 was 0.0805 µg/mL; that for B16 was 0.006 µg/mL.

B17: the “Neutralization IC50 (RSV subtype A)” value is > 25 µg/mL. The value for B18 was > 25 µg/mL. Under B19 stands > 25 µg/mL; under B20, > 25 µg/mL. The value for B21 was > 25 µg/mL.

The values are drawn from patent publication US20260258115A1 (MAPP BIOPHARMACEUTICAL, published 2026).
